The structures appear in SMILES notation. A value given as a limit tells only on which side of the number the result lay.

Series [1] in a line: Probe stability in PBS by radio-HPLC. The class given is physicochemical. To be noted: for parent [64Cu]1 remaining (radiochemical purity): PBS, room temperature. The method, then: The in vitro stability of [^64Cu]1 was evaluated in PBS buffer by radio-HPLC. […] This high stability is attributed to Sar cage in the conjugate. In addition, it is known that the U87MG cell line over-expresses integrin αvβ3 receptor [13].
All chemicals and solvents were obtained from Aldrich (Milwaukee, Wis., USA) and used without further purification. 1,8-Diamino-3,6,10,13,16,19-hexaazabicyclo[6.6.6]-eicosine was purchased from Areva Med (Dallas, Tex.). ^125I-Echistatin was obtained from Perkin-Elmer (Waltham, Mass.). ^1H and ^13C nuclear magnetic resonance (NMR) were recorded on a Varian 400 MHz spectrometer. Mass spectrum was obtained on a ThermoElectron Finnigan LTQ mass spectrometer equipped with an electrospray ionization (ESI) source (Thermo Scientific, USA). HPLC analyses were carried out on an analytical reversed-phase high performance liquid chromatography (HPLC) system equipped with a dual UV absorbance detector (Waters 2487) using a phenomenex C18 RP (250×4.6 mm 5 micron). The flow was 1 mL/min, with the mobile phase starting from 100% solvent A (0.1% TFA in water), followed by a gradient mobile phase to 20% solvent A and 80% solvent B (0.1% TFA in acetonitrile) at 30 min. The UV absorbance was monitored at 214 nm and the identification of the peptides was confirmed based on the UV spectrum using a PDA detector. The radioactivity was detected by a model of Ludlum 2200 single-channel radiation detector. The stability study was performed under the same HPLC condition. MicroPET scans were performed on a microPET R4 rodent model scanner (Siemens Medical Solutions USA, Inc., Knoxyille, Tenn.). The scanner has a computer-controlled bed and 10.8-cm transaxial and 8-cm axial fields of view (FOVs). It has no septa and operates exclusively in the 3-dimensional (3D) list mode. Animals were placed near the center of the FOV of the scanner.
The stability of [^64Cu]1 was tested in PBS. In brief, 3.7 MBq of the [^64Cu]1 was pipetted into 0.5 mL of the PBS and incubated in PBS at room temperature. At various time points (1, 6, and 24 h), an aliquot of the solution was taken and the radiochemical purity was determined by reverse-phase HPLC under identical conditions. The parent [^64Cu]1 was determined to be >99%, 98%, and 96% at 1, 6, and 24 h, respectively.

Series [2] can be described thus: Partition coefficient (1-octanol/PBS). The series is classed as physicochemical. To be noted: 1-octanol / PBS pH 7.4, triplicate. The protocol:
The partition coefficient value was expressed as log P. Log P of [^64Cu]1 was determined by measuring the distribution of radioactivity in 1-octanol and PBS. Approximately 111 kBq of [^64Cu]1 in 2 μL of PBS (pH=7.4) was added to a vial containing 0.5 mL 1-octanol and 0.5 mL of PBS (pH=7.4). After vigorously vortexing for 10 min, the vial was centrifuged at 12,500 rpm for 5 min to ensure the complete separation of layers. 200 μL of each layer was pipetted into test tubes, and radioactivity was measured using a gamma counter (Perkin-Elmer Packard Cobra). The mean value was calculated from triplicate experiments. The log P value of [^64Cu]1 was determined to be […].

The next series is described as follows: in vivo. The arrangement: species or system mice. Conditions: female, athymic nude, mouse, iv, 7.4 MBq, total radioactivity. The method, then: (§1) The in vivo tumor-targeting efficacy of [^64Cu]1 was evaluated in nude mice bearing U87MG human glioma xenograft tumors (n=3) by static microPET scans at 2, 4, and 20 h after tail-vain injection of [^64Cu]1. U87MG tumors were clearly visualized at all time points examined. […] At 2 h post injection, the tumor/liver, tumor/kidneys, and tumor/muscle ratios reached 2.82±0.76, 2.22±1.49, and 11.79±2.65, respectively. Consequently, the high tumor-to-nontumor ratios provided excellent contrast for PET imaging. Blocking experiment was conducted to confirm the integrin αvβ3 specificity of [^64Cu]1.
(§2) All animal studies were approved by the University of Southern California Institutional Animal Care and Use Committee. Female athymic nude mice (about 4-6 weeks old, with a body weight of 20-25 g) were obtained from Harlan Laboratories (Livermore, Calif.). The U87MG human glioma xenograft model was generated by subcutaneous injection of 5×10^6 U87MG human glioma cells into the front flank of female athymic nude mice. The tumors were allowed to grow 3-5 weeks until 200-500 mm^3 in volume. Tumor growth was followed by caliper measurements of the perpendicular dimensions.
(§3) MicroPET scans and imaging analysis were performed using a rodent scanner (microPET R4 scanner; Siemens Medical Solutions). About 7.4 MBq of [^64Cu]1 was intravenously injected into each mouse (n=3) under isoflurane anesthesia. Five-minute static scans were acquired at 2, 4, and 20 h pi. The images were reconstructed by a two-dimensional ordered-subsets expectation maximum (OSEM) algorithm. For each microPET scan, regions of interest were drawn over the tumor, normal tissue, and major organs on the decay-corrected whole-body coronal images. The radioactivity concentration (accumulation) within the tumor, muscle, liver, and kidneys were obtained from the mean value within the multiple regions of interest and then converted to % ID/g.

The test system of series [3] is U87MG human glioma xenograft tumors. In words: in vivo. Also noted: species or system mice. To be noted: mouse, 10 mg/kg. The protocol: as §1, §2, §3
A further series concerns the target T1, integrin αvβ3 (Homo sapiens, UniProt P05106+P06756).
T1 construct: host or cells: U87MG human glioblastoma cells (whole cells in suspension)
In words: Integrin αvβ3 receptor binding assay (competitive displacement of 125I-echistatin on U87MG cells). Conditions: 125I-echistatin radioligand, 3 h, room temperature. Background: Loss of bound radioactivity is the signal in a displacement assay; it reports binding, not function.

As for `N=C(N)NCCC[C@@H]1NC(=O)[C@H](CCCCNC(=O)[C@H]2O[C@@H](CNC(=O)Cn3nnc4c3-c3ccccc3CN(C(=O)CCNC(=O)CCOCCOCCOCCOCCOCCC(=O)NC35CNCCNCC(N)(CNCCNC3)CNCCNC5)c3ccccc3-4)[C@H](O)[C@@H](O)[C@H]2O)NC(=O)[C@@H](Cc2ccccc2)NC(=O)[C@H](CC(=O)O)NC(=O)CNC1=O` [[^64Cu]1, metal not drawn], the “release of 64Cu from the conjugate” value in series [1] (PBS buffer, over a period of 24 h, radio-HPLC) is listed as “no release of ^64Cu from the conjugate”. The “parent [64Cu]1 remaining (radiochemical purity)” value is > 99% in series [1] (1 h), 98% in series [1] (6 h) and 96% in series [1] (24 h). Besides, the logP in series [2] was determined as 4.94 ± 0.1. Besides, the tissue uptake at 2 h in the series “in vivo” came out at 4.96 ± 0.65 %ID/g. In addition, the tissue uptake at 4 h in “in vivo” was found to be 4.11 ± 0.48 %ID/g. In addition, the tissue uptake at 20 h in “in vivo” stood at 2.41 ± 0.31 %ID/g. Also, the values for the tissue to tissue ratio at 2 h in the series “in vivo” (tumor/kidneys ratio), in the series “in vivo” (tumor/liver ratio) and in the series “in vivo” (tumor/muscle ratio) were 2.22 ± 1.49, 2.82 ± 0.76 and 11.8 ± 2.65, respectively. The “uptake values of normal organs (liver, kidneys, muscle) with blocking” value in series [3] is “lower than those without coinjection of c(RGDyK)”.
On integrin αvβ3, `N=C(N)NCCC[C@@H]1NC(=O)[C@H](CCCCNC(=O)C2O[C@H](CNC(=O)Cn3nnc4c3-c3ccccc3CN(C(=O)CCNC(=O)CCOCCOCCOCCOCCOCCC(=O)N[C@]35CNCCNC[C@](N)(CNCCNC3)CNCCNC5)c3ccccc3-4)[C@H](O)C(O)[C@@H]2O)NC(=O)[C@@H](Cc2ccccc2)NC(=O)[C@H](CC(=O)O)NC(=O)CNC1=O` (stereo partly shown) [compound 1] returned an IC50 of 170 ± 3 nM.

Usually logP stands for a log measure of how a compound divides between an organic and an aqueous phase. High values mean a more lipophilic compound, low ones a more hydrophilic compound. Usually tissue uptake stands for the percentage of the injected dose found per gram of tissue. By IC50 is commonly meant the concentration that gives 50% inhibition. Low values mean greater potency in that assay, high ones weaker potency in that assay.

The values above are taken from patent US9447149B2, “Methods and compositions for the rapid synthesis of radiometal-labeled probes” (University of Southern California, priority 2012, dated 2016).
